Experimental data taken from the supplement of paper PMC12764529.
± gives the half width of the 95% confidence interval.

Key:
[1] = folding stability dG unfold (combined trypsin and chymotrypsin); higher = more stable
How it was run: (§1)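 How resistant each design was to proteolysis was captured as K50, inferred by Bayesian fitting of sequencing counts. Unfolding free energy was then derived relative to a sequence-predicted unfolded-state K50 and a shared folded-state K50, per protease or combined. Digestion used trypsin and chymotrypsin at 11 threefold-diluted concentrations plus a no-protease condition, on mini-proteins under 80 residues without cysteine in a PA-tagged cDNA display construct. Designs were kept only when AlphaFold2 dimer inter-PAE was above 15.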

[2] = folding stability dG unfold from trypsin proteolysis; higher = more stable
How it was run: as §1

[3] = folding stability dG unfold from chymotrypsin proteolysis; higher = more stable
How it was run: as §1

| Sequence | folding stability dG unfold [1] | folding stability dG unfold [2] | folding stability dG unfold [3] |
| --- | --- | --- | --- |
| SAGGSAGGPLVVILPDPETGLFHVRVRYPDGTVESLGPFPSLEEALEALPSEGLGRVEVRPYLKSAGGSAGG [r6_307_TrMRF] | 1.28 ± 0.049 kcal/mol | 1.05 ± 0.014 kcal/mol | 1.44 ± 0.038 kcal/mol |
| SAGGSAGGPNMYMFKLEIKWYDPGKGKPVATRPITVMVPEDDLPEILKNLPPGFEIKNITIFPMSAGGSAGG [r6_777_TrROS] | 2.45 ± 0.11 kcal/mol | 2.16 ± 0.058 kcal/mol | 2.5 ± 0.071 kcal/mol |
| SAGGSAGGPNYFVRITIKMRKPNGKPIGEFPIWIPFKSKEQARSLADELAQMPGIEKVDIELVPSAGGSAGG [r6_475_TrROS] | 2.53 ± 0.051 kcal/mol | 2.22 ± 0.025 kcal/mol | 2.68 ± 0.031 kcal/mol |
| SAGGSAGGPPGEPPDVKVIPIEIEHERYNPDDGEMEVETIPFPIVIAPDGTIYHGDRPIPPDDISAGGSAGG [r6_515_TrROS] | 1.8 ± 0.41 kcal/mol | 2.02 ± 0.24 kcal/mol | 1.41 ± 0.09 kcal/mol |
| SAGGSAGGPPVEERELTLPDGTRLTITRYPDSYTVEVTLPDGTVETRTYPDVTPEEAVAAVKAASAGGSAGG [r6_459_JUSTAS] | 1.85 ± 0.051 kcal/mol | 1.68 ± 0.043 kcal/mol | 1.927 ± 0.013 kcal/mol |
| SAGGSAGGPVKIHVHVNPEEGYYMIEVRSGNEPRHIMIPMDKEEIKSFIENLPPGIEVEIHPMPSAGGSAGG [r6_401_TrROS] | 1.4 ± 0.14 kcal/mol | 1.37 ± 0.067 kcal/mol | 1.19 ± 0.072 kcal/mol |
| SAGGSAGGQEEEAEALAKEVEAPAREALPGTEVTVTVTVTRREDGSLEVDVTIEGDFALPAALLSAGGSAGG [r6_999_JUSTAS] | 0.783 ± 0.24 kcal/mol | 0.813 ± 0.065 kcal/mol | 0.636 ± 0.067 kcal/mol |
| SAGGSAGGRIEVDPEGATIKYEHNPNMMQIEIKYPGKKVQIMIPPDFMKQNPDMPIKDLVEWILSAGGSAGG [r6_369_TrROS] | 1.11 ± 0.23 kcal/mol | 1.09 ± 0.081 kcal/mol | 0.94 ± 0.089 kcal/mol |
| SAGGSAGGRKTRRLVLEVDDIPEGVSAEELTEEELRRLGLPPDARIRVVRRPDGRLLVVIEVRESAGGSAGG [r6_551_TrROS_Hall] | 2.42 ± 0.051 kcal/mol | 1.64 ± 0.022 kcal/mol | 2.71 ± 0.0092 kcal/mol |
| SAGGSAGGSAAAPPPPTITITVEVRTLPDGTVEITATATLPDGTTLTVTLRINADGSLTATSAGGSAGGSAG [r3_259_TrROS_Hall] | 3.17 ± 0.23 kcal/mol | 1.91 ± 0.13 kcal/mol | 3.4 ± 0.17 kcal/mol |
| SAGGSAGGSAAISIDLPPNSVLNISIPVTEPGGKPYTVKISVYSTPLPSNSYELNIKVTIVSAGGSAGGSAG [r3_347_JUSTAS] | 4.43 ± 0.12 kcal/mol | 3.56 ± 0.15 kcal/mol | 4.66 ± 0.093 kcal/mol |
| SAGGSAGGSAAITIPVPPGETVTIKIEIEMTVPPNQRNPDGQRMKPGQKVRMEVTFTFRVDGSAGGSAGGSA [r18_450_TrROS] | 4.24 ± 0.13 kcal/mol | 3 ± 0.11 kcal/mol | 4.63 ± 0.058 kcal/mol |
| SAGGSAGGSAAKIVDINISVRRSPENGYWKIPITIRIKGPNGKEQEIDLTMVFKIPPGQPLFSAGGSAGGSA [r18_95_TrROS] | 2.9 ± 0.15 kcal/mol | 2.83 ± 0.072 kcal/mol | 2.88 ± 0.043 kcal/mol |
| SAGGSAGGSAAKPIPFTITSVSVPTAPDGKKYAVVEISFPGSGAKAWAVYDIDDPYIKEAGSAGGSAGGSAG [r3_57_TrMRF] | 1.37 ± 0.1 kcal/mol | 0.804 ± 0.095 kcal/mol | 1.71 ± 0.15 kcal/mol |
| SAGGSAGGSAAPLEARLVSVSRDPAGNRLHAVYVVRDPSTGEQYLVTFSADPTSISVRVERVSAGGSAGGSA [r18_444_TrMRF] | 3.96 ± 0.071 kcal/mol | 2.69 ± 0.12 kcal/mol | 4.48 ± 0.089 kcal/mol |
| SAGGSAGGSAAPTNPVEITLKRPDGTPVKATITFYPDGVKVTVEDGDTTTTSWLSPEEITLSAGGSAGGSAG [r3_373_JUSTAS] | 1.89 ± 0.03 kcal/mol | 2.09 ± 0.037 kcal/mol | 1.722 ± 0.015 kcal/mol |
| SAGGSAGGSAAPVPPDRTLTVYRDPNTDKYTIRTPDGSVTVSPITPEELRAAGAPVVYLGPESAGGSAGGSA [r18_125_JUSTAS] | -0.297 ± 0.073 kcal/mol | -1 ± 0.25 kcal/mol | -0.0867 ± 0.12 kcal/mol |
| SAGGSAGGSAAPVVREIEIDLPYPDGSPLTVEKVTEEPAPGTVHYEIKLPDGTVITRTVPTFSAGGSAGGSA [r18_370_JUSTAS] | -0.797 ± 0.24 kcal/mol | -0.92 ± 0.3 kcal/mol | -1.03 ± 0.39 kcal/mol |

| Sequence | folding stability dG unfold [1] | folding stability dG unfold [2] | folding stability dG unfold [3] |
| --- | --- | --- | --- |
| SAGGSAGGSADAVVVEVTLPGGGKARAVFFPDGSVVIVVDFPDGRRAVIFLENNEIVVLPVDSAGGSAGGSA [r18_285_TrMRF] | 3.63 ± 0.12 kcal/mol | 3.73 ± 0.2 kcal/mol | 3.15 ± 0.19 kcal/mol |
| SAGGSAGGSADDEIVAEFTFTVPGTGVKKVKVKVFKDPNSDEYWVRVEGKWLPVSNPEEALESAGGSAGGSA [r18_67_TrMRF] | 2.1 ± 0.14 kcal/mol | 1.62 ± 0.11 kcal/mol | 2.4 ± 0.066 kcal/mol |
| SAGGSAGGSADELLDKLLNHKWLRDAMEKAPPGMEEIDIELPDGGKIRIRRTPNGGFRLEPSAGGSAGGSAG [r3_124_TrROS] | 1.76 ± 0.087 kcal/mol | 1.904 ± 0.019 kcal/mol | 1.48 ± 0.081 kcal/mol |
| SAGGSAGGSADIKVEVEYDKSNGYMWVKIKLPGKDIPIWIPPNDSPEQMEEKAIDFAKYLLKSAGGSAGGSA [r18_266_TrROS] | 0.791 ± 0.27 kcal/mol | 0.592 ± 0.12 kcal/mol | 0.765 ± 0.21 kcal/mol |
| SAGGSAGGSADNKPFKVEIDVEHHPPNGYYRVTIEWPDGREIVVWMPGNPDEAKDQAKELISAGGSAGGSAG [r3_143_TrROS] | 1.31 ± 0.16 kcal/mol | 1.28 ± 0.04 kcal/mol | 1.26 ± 0.22 kcal/mol |
| SAGGSAGGSADPPRSVLKEERSPDGTTTYKLLEYPGERVLVVTRTPPDGTEEVVLIPEEELSAGGSAGGSAG [r3_167_JUSTAS] | 0.231 ± 0.086 kcal/mol | 0.322 ± 0.071 kcal/mol | 0.0217 ± 0.25 kcal/mol |
| SAGGSAGGSADYFMVVIKYYPPNGEKQEHPFSVPFKDEEDLKDEIKEQAPPGREVEIEIFPMSAGGSAGGSA [r18_60_TrROS] | 0.647 ± 0.12 kcal/mol | 0.956 ± 0.083 kcal/mol | -0.0385 ± 0.17 kcal/mol |
| SAGGSAGGSAEDVVLKVKIEIPSSDGTLLEIDEAIYNPKPGTLHFKIRSPDGSEFEIEIPLDSAGGSAGGSA [r18_370_TrMRF] | 1.12 ± 0.082 kcal/mol | 0.725 ± 0.033 kcal/mol | 1.44 ± 0.13 kcal/mol |
| SAGGSAGGSAEELAKKLAEELRKEHNLEVTVEEVELKEEEIPGLKFKPGQKLLVITVKKKDSAGGSAGGSAG [r3_229_TrROS_Hall] | 0.604 ± 0.13 kcal/mol | 0.901 ± 0.033 kcal/mol | 0.227 ± 0.069 kcal/mol |
| SAGGSAGGSAEELLKAFPNAEIVKYDPETKKFIIKLKDGSYLVVNLETGEIKLVSKEELEKASAGGSAGGSA [r18_381_TrROS_Hall] | 3.67 ± 0.076 kcal/mol | 2.66 ± 0.11 kcal/mol | 3.94 ± 0.066 kcal/mol |
| SAGGSAGGSAEEPEFEIVSVEYDPETNVLTVVVRDKKTGRLYVFRFYPDGTVEVREVSLEDLSAGGSAGGSA [r18_521_TrROS_Hall] | 4.74 ± 0.076 kcal/mol | 3.37 ± 0.064 kcal/mol | 5.03 ± 0.057 kcal/mol |
| SAGGSAGGSAEKPPPPVVTLRVRVVVEVDGKLYVATAEVRLVDGKLEIRVRIEEVPPGAPVSAGGSAGGSAG [r3_49_TrROS_Hall] | 4.34 ± 0.17 kcal/mol | 3.7 ± 0.12 kcal/mol | 4.59 ± 0.22 kcal/mol |
| SAGGSAGGSAEPGPEELAKALAGELEKRFGKPVKEVKAYEIPGEKRYIVTAKLDDGEFTIIASAGGSAGGSA [r18_145_TrMRF] | -0.121 ± 0.38 kcal/mol | -0.267 ± 0.28 kcal/mol | -0.235 ± 0.28 kcal/mol |
| SAGGSAGGSAEPPRYLVIELEVERSPEEIAEELRRRLGIERVEVEYDPETERLRVRVVVRLPSAGGSAGGSA [r18_275_TrROS_Hall] | 2.88 ± 0.11 kcal/mol | 1.96 ± 0.048 kcal/mol | 3.37 ± 0.047 kcal/mol |
| SAGGSAGGSAEPVRLVVVTPGFPDGPPIPVEELEALLEAEDVTVVDPFTIPELGYVVLLVEASAGGSAGGSA [r18_466_TrMRF] | 1.07 ± 0.1 kcal/mol | 1.4 ± 0.048 kcal/mol | 0.728 ± 0.092 kcal/mol |
| SAGGSAGGSAETFTLPGGYTITVEPTEGGVKVTITHPDGSKGEVELGPTEPLVVDPDGATILASAGGSAGGS [r12_281_TrMRF] | 1.66 ± 0.1 kcal/mol | 1.49 ± 0.079 kcal/mol | 1.66 ± 0.093 kcal/mol |
| SAGGSAGGSAEVEIEFVSYDPSTGRLVRKRVKLKLLPDPKGGPVEVVEVEVDPGGPVPAGASAGGSAGGSAG [r3_397_TrMRF] | 2.11 ± 0.12 kcal/mol | 1.91 ± 0.053 kcal/mol | 2.08 ± 0.046 kcal/mol |
| SAGGSAGGSAEVEIEVDKETKELYIKDSNGKVKKIKVKVVKVEVKKPVVTLPKEELSEEELKSAGGSAGGSA [r18_59_TrROS_Hall] | 0.258 ± 0.33 kcal/mol | 0.818 ± 0.084 kcal/mol | -0.357 ± 0.17 kcal/mol |
